Source: the supplement of paper PMC7877785
± gives the uncertainty stated by the source.

Experiment: self-splicing fitness, log relative to wild type (ln ratio); higher = more splicing; Tetrahymena group I intron in knt gene, E. coli kanamycin selection, DiMSum; sequences stand for … in CUCUCU…GGAGGGAAAAGUUAUCAGGCAUGCACCUGGUAGCUAGUCUUUAAACCAAUAGAUUGCAUCGGUUUAAAAGGCAAGACCGUCAAAUUGCGGGAAAGGGGUCAACAGCCGUUCAGUACCAAGUCUCAGGGGAAACUUUGAGAUGGCCUUGCAAAGGGUAUGGUAAUAAGCUGACGGACAUGGUCCUAACCACGCAGCCAAGUCCUAAGUCAACAGAUCUUCUGUUGAUAUGGAUGCAGUUCACAGACUAAAUGUCGGUCGGGGAAGAUGUAUUCUUCUCAUAAGAUAUAGUCGGACCUCUCCUUAAUGGGAGCUAGCGGAUGAAGUGAUGCAACACUGGAGCCGCUGGGAACUAAUUUGUAUGCGAAAGUAUAUUGAUUAGUUUUGGAGUACUCGUGGUCG
In short: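 Six replicate transformations of E. coli BL21(DE3) with a pET-22b(+) library were grown overnight at 37°C or 30°C. The library randomised all eight P1ex-region intron nucleotides, the intron lying in the knt kanamycin-resistance gene, and plates were LB agar with or without 25 μg/mL kanamycin plus 100 μg/mL carbenicillin, 50 μM IPTG and 0.2% rhamnose. Pooled colonies were amplicon-sequenced on an Illumina HiSeq 2500, and fitness is the DiMSum error-weighted combination of wild-type-normalised replicate fold changes, kanamycin versus none.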

Sequence | self-splicing fitness (ln) (30 °C) | self-splicing fitness (ln) (37 °C)
GUAGAGCAAUAUUACGAGUC | -2.19 ± 0.17 | -1.47 ± 0.24
UUACAGCAAUAUUACGGCCU | -0.981 ± 0.17 | -1.23 ± 0.26
CUGGAGCAAUAUUACGCUUC | -2.1 ± 0.28 | 
UGCGAGCAAUAUUACGUUCA | -1.45 ± 0.11 | -0.32 ± 0.15
AGCCAGCAAUAUUACGUUAA | -2.44 ± 0.17 | -2.59 ± 0.2
UGCCAGCAAUAUUACGCUAC | -3.47 ± 0.16 | -2.78 ± 0.2
CUGAAGCAAUAUUACGUCCG | 0.226 ± 0.083 | 0.658 ± 0.13
CGAGAGCAAUAUUACGUUUA | -3.35 ± 0.36 | -3.25 ± 0.47
CAUGAGCAAUAUUACGAGCA | -3.68 ± 0.31 | -2.56 ± 0.23
CACAAGCAAUAUUACGGGGG | -3.12 ± 0.11 | -2.1 ± 0.11
CCCCAGCAAUAUUACGGGAA | -2.29 ± 0.096 | -1.64 ± 0.088
AUCUAGCAAUAUUACGUUUG | -3.39 ± 0.28 | -2.04 ± 0.37
UCGCAGCAAUAUUACGCUCU | -3.55 ± 0.23 | -1.35 ± 0.13
ACGUAGCAAUAUUACGCCAA | -2.3 ± 0.38 | -1.5 ± 0.37
ACACAGCAAUAUUACGAUGC | -1.92 ± 0.073 | -0.965 ± 0.094
CAAUAGCAAUAUUACGUAUG | -1.66 ± 0.12 | -1.7 ± 0.12
UCCAAGCAAUAUUACGUGCU | -3.49 ± 0.22 | -2.76 ± 0.22
CAUAAGCAAUAUUACGAAUA | -1.84 ± 0.24 | -2.9 ± 0.43
ACGGAGCAAUAUUACGCAUC | -2.6 ± 0.17 | -2.03 ± 0.21
CUAAAGCAAUAUUACGGUAA | -3.53 ± 0.15 | -2.36 ± 0.18
AGCCAGCAAUAUUACGCGAA | -0.797 ± 0.26 | -2.79 ± 0.38
AAGCAGCAAUAUUACGGUAA | -1.25 ± 0.091 | -0.944 ± 0.094
CGUUAGCAAUAUUACGUCGU |  | -1.81 ± 0.33
CCAAAGCAAUAUUACGCCAA | -2.73 ± 0.2 | -1.96 ± 0.23
ACUGAGCAAUAUUACGUUCG | -2.2 ± 0.15 | -0.355 ± 0.12

Sequence | self-splicing fitness (ln) (30 °C) | self-splicing fitness (ln) (37 °C)
AGAAAGCAAUAUUACGUUCC | -2.59 ± 0.43 | -1.23 ± 0.39
GCACAGCAAUAUUACGGUGG | -1.54 ± 0.048 | -1.35 ± 0.07
UCACAGCAAUAUUACGAGGC | -2.83 ± 0.14 | -2.62 ± 0.16
CUGUAGCAAUAUUACGGGAA | -1.49 ± 0.29 | -2.12 ± 0.35
GUCAAGCAAUAUUACGCCUC | -1.25 ± 0.25 | 0.644 ± 0.41
CAUAAGCAAUAUUACGCUAG | -3.34 ± 0.16 | -2.4 ± 0.15
GUAAAGCAAUAUUACGCCUA | -0.413 ± 0.14 | 0.493 ± 0.19
GUCUAGCAAUAUUACGAUCC | -0.754 ± 0.16 | 0.0678 ± 0.24
GACAAGCAAUAUUACGAAUG | -2.42 ± 0.1 | -0.875 ± 0.098
CUAGAGCAAUAUUACGUCCC |  | -1.71 ± 0.47
UGUGAGCAAUAUUACGCCUA | -0.115 ± 0.23 | 
CAAAAGCAAUAUUACGUUGA | -3.14 ± 0.14 | -2.32 ± 0.12
CGAAAGCAAUAUUACGGUCG | -2.88 ± 0.15 | -2.19 ± 0.16
UAGUAGCAAUAUUACGUCUU | -0.75 ± 0.097 | -0.388 ± 0.11
AAAGAGCAAUAUUACGUUCA | -1.03 ± 0.094 | -0.639 ± 0.097
UAGAAGCAAUAUUACGCGUA | -0.436 ± 0.11 | -0.472 ± 0.12
AAGGAGCAAUAUUACGCCGC |  | -2.04 ± 0.5
GUGUAGCAAUAUUACGCAAU | -2.06 ± 0.22 | -1.26 ± 0.18
CAUCAGCAAUAUUACGUGGC | -4.41 ± 0.27 | -2.72 ± 0.19
ACGGAGCAAUAUUACGUCGA | -2.03 ± 0.38 | -2.07 ± 0.28
GGAGAGCAAUAUUACGAGGG | -1.99 ± 0.38 | 
AGUCAGCAAUAUUACGUACU | -1.92 ± 0.13 | -0.881 ± 0.13
ACACAGCAAUAUUACGCUGC | -2.18 ± 0.16 | -1.14 ± 0.15
CCCCAGCAAUAUUACGAUUA | -3.4 ± 0.2 | -2.87 ± 0.22
AAGUAGCAAUAUUACGGCUA | -1.01 ± 0.085 | -0.475 ± 0.095

Sequence | self-splicing fitness (ln) (30 °C) | self-splicing fitness (ln) (37 °C)
AGGGAGCAAUAUUACGUGGG | -3.31 ± 0.2 | 
GUAGAGCAAUAUUACGCCCC | -1.39 ± 0.19 | -0.63 ± 0.28
UAACAGCAAUAUUACGCAUG | -1.43 ± 0.086 | -0.695 ± 0.099
CUCAAGCAAUAUUACGUGGC | -4.37 ± 0.22 | -2.24 ± 0.14
UCGUAGCAAUAUUACGGACA | -0.671 ± 0.18 | -1.49 ± 0.26
CUCUAGCAAUAUUACGGCUU | -3.45 ± 0.32 | -3.52 ± 0.42
UAUAAGCAAUAUUACGAUUC | -2.68 ± 0.15 | -1.57 ± 0.32
CGUCAGCAAUAUUACGCGAU | -3.23 ± 0.29 | -1.76 ± 0.42
CGUCAGCAAUAUUACGCUGA | -2.3 ± 0.3 | -1.89 ± 0.33
CGGUAGCAAUAUUACGGGAU | -3.86 ± 0.47 | 
AGUAAGCAAUAUUACGCCCA | -1.19 ± 0.37 | 
AGGAAGCAAUAUUACGCGUG | -1.49 ± 0.072 | -0.951 ± 0.092
CCUUAGCAAUAUUACGCAUC |  | -2.77 ± 0.48
GGCAAGCAAUAUUACGGCAA | 0.2 ± 0.086 | 0.388 ± 0.12
UUUCAGCAAUAUUACGCUCU | -1.2 ± 0.093 | -0.182 ± 0.11
GACCAGCAAUAUUACGUCCC | -0.756 ± 0.12 | -0.522 ± 0.13
UACGAGCAAUAUUACGCUAA | -2.89 ± 0.42 | -2.85 ± 0.35
GUGAAGCAAUAUUACGGGGU | -3.53 ± 0.16 | -1.45 ± 0.14
CGACAGCAAUAUUACGCGGU | -4.5 ± 0.15 | -2.85 ± 0.14
ACAUAGCAAUAUUACGUAUC | -3.37 ± 0.19 | -1.62 ± 0.2
UAUCAGCAAUAUUACGCCCU | -0.754 ± 0.11 | -0.333 ± 0.14
UGUGAGCAAUAUUACGUAGG | -3.5 ± 0.16 | -1.5 ± 0.14
CUGCAGCAAUAUUACGCUCA |  | -2.21 ± 0.35
AUACAGCAAUAUUACGGGAU | -0.898 ± 0.076 | -0.747 ± 0.1
UUAUAGCAAUAUUACGUGCA | -2.37 ± 0.23 | -1.07 ± 0.2

Sequence | self-splicing fitness (ln) (30 °C) | self-splicing fitness (ln) (37 °C)
UGAUAGCAAUAUUACGAUUA | -0.749 ± 0.11 | -0.000856 ± 0.1
AACCAGCAAUAUUACGGGGA | -2.46 ± 0.097 | -1.09 ± 0.089
AAUAAGCAAUAUUACGGGUU | -2.37 ± 0.13 | -1.43 ± 0.16
CUCUAGCAAUAUUACGUGUG | -2.93 ± 0.11 | -2.89 ± 0.14
ACCUAGCAAUAUUACGACAA | -0.996 ± 0.14 | -0.881 ± 0.16
GGGGAGCAAUAUUACGACAG | -3.9 ± 0.39 | -2.33 ± 0.39
AGCAAGCAAUAUUACGUUAG | -2.96 ± 0.17 | -2.24 ± 0.22
UGGUAGCAAUAUUACGCUCC | -2.54 ± 0.24 | -2.44 ± 0.21
CAAUAGCAAUAUUACGACAA | -3.42 ± 0.18 | -2.07 ± 0.15
CACCAGCAAUAUUACGCUUA | -2.24 ± 0.09 | -1.23 ± 0.083
GUAAAGCAAUAUUACGCGCG | -0.817 ± 0.14 | -0.615 ± 0.24
ACAGAGCAAUAUUACGGCAU | -3.25 ± 0.23 | -0.707 ± 0.17
CCCCAGCAAUAUUACGUAGG | -3.78 ± 0.12 | -2.68 ± 0.15
AGGCAGCAAUAUUACGCUCA | -0.172 ± 0.079 | 0.0289 ± 0.12
ACAUAGCAAUAUUACGCUGU | -3.64 ± 0.18 | -2.69 ± 0.22
UAGCAGCAAUAUUACGGCCA | 0.54 ± 0.1 | 0.33 ± 0.16
AAUUAGCAAUAUUACGGCCA | -0.657 ± 0.14 | 0.518 ± 0.17
CCGAAGCAAUAUUACGUAUU | -4.74 ± 0.29 | -3.35 ± 0.2
CCACAGCAAUAUUACGGAGC | -3.58 ± 0.14 | -2.99 ± 0.19
GGUUAGCAAUAUUACGCAGG | -3.31 ± 0.24 | -2.05 ± 0.2
GGAGAGCAAUAUUACGCUUC |  | -1.31 ± 0.43
UGAAAGCAAUAUUACGUCGC | -3.49 ± 0.23 | -2.98 ± 0.32
UGCUAGCAAUAUUACGGGAG | -2.68 ± 0.17 | -1.65 ± 0.13
GUACAGCAAUAUUACGCGUA | -3.44 ± 0.32 | -1.71 ± 0.24
